Source: US20100080806A1 (INSTITUTE OF BASIC MEDICAL SCIENCES OF CHINESE ACADEMY OF …, published 2010)

Legend:
[1] = target: T1, recombinant human DR5 extracellular domain protein expressed in E. coli (human, UniProt O14763 56-210); test: ELISA on plate-coated recombinant DR5 extracellular domain, single-site fit (GraphPad)
T1 construct: extracellular domain; also called death receptor 5; TRAIL-R2
Procedure: (§1) ELISA plates (Costar, USA) were coated with recombinant human DR4 or DR5 extracellular domain protein expressed in E. coli over night, blocked with 5% nonfat milk at room temperature for two hours. […] The absorbency at 492 nm was measured on a microtiter reader of enzyme-labelled machine, Wellscan MK3 (Thermo Labsystems, Finland).

[2] = target: T2, recombinant human DR4 extracellular domain protein expressed in E. coli (human, UniProt O00220 24-239); test: ELISA, plate coated with recombinant DR4 extracellular domain
T2 construct: extracellular domain; also called death receptor 4; TRAIL-R1
T2 sequence (O00220 24-239): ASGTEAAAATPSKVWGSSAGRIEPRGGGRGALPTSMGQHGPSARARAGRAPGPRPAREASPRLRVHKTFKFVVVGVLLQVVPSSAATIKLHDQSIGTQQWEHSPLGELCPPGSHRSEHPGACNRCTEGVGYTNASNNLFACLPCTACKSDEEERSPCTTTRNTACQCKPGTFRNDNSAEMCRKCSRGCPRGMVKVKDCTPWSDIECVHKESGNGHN
Procedure: as §1

Kd [1]: 0.3 nM
binding result [2]: no binding
B1: monoclonal antibody AD5-10 against human TRAIL receptor DR5 (antibody, IgG3, V domains shown)
VH: QIQLVQSGPELKKPGETVKISCKASGYTFTDFSMNWVKQAPGKGLKWMGWINTETGEPTYADDFKGRFALSMETSASTAYLQINNLKNEDTATYFCVRIDYWGQGTTLTVSS
VL: DVVMTQTPLSLPVSLGDQASISCRSSQSLVHSNGNTYLHWYLQKPGQSPKLLIYKVSNRFSGVPDRFSGSGSGTDFTLKISRVEAEDLGVYFCFQSTHVPHTFGGGTKLEIKR
notes: Murine hybridoma antibody (CGMCC 1192), subtype IgG3 kappa; also called anti-human TRAIL receptor DR5 mAb; mAb DR5
